B1: KCNAB2 (parent)
chain: YVDVVFANRPDPNTPMEETVRAMT
B2: PKD2L1 (parent)
chain: VFIFYYVVEEILELHIHRLRYLSS

Variants of: B1
Test: protein stability index of a GFP-peptide fusion (GPS, HEK-293T) (PSI 1-6); higher = more stable
Settings: c terminus: a fixed tail appended
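Further: lentivirally expressed fusions sorted by FACS into six bins by GFP to DsRed ratio, PSI derived from sequencing read proportions per bin multiplied by bin number.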

Protein stability index: each site, then its substitutions
F6: T 3.11 | M 2.3 | S 2.79 | V 1.94 | A 2.79 | Q 3.1 | W 3.77 | K 2.66 | P 2.09 | E 3.63 | R 2.05 | Y 2.13 | H 2.42 | I 1.99 | N 3.01 | G 3.16 | C 2.18 | L 2.15 | D 4.17
M16: P 1.91 | H 1.93 | E 2.02 | N 2.2 | D 1.77 | C 1.82 | L 1.86 | K 1.8 | I 1.64 | A 1.8 | F 1.77 | G 1.95
R9: E 2.15 | N 2.22 | K 1.69 | F 2.02 | W 2.72 | M 2.67 | S 2.76 | I 2.07 | P 2.84 | Q 1.98 | C 1.6 | L 2.27 | A 1.78 | T 1.7 | D 2.71 | V 2.96 | Y 1.47 | H 1.66 | G 2.17
P15: Q 2.1 | S 2.69 | L 2.44 | E 1.73 | A 2.34 | D 1.49 | K 2.72 | W 1.78 | G 1.91 | H 1.35 | C 2.67 | Y 2.21 | F 2.47 | M 2.28 | V 1.87 | N 1.97 | R 2.52 | T 1.94 | I 1.9
T14: L 2.37 | A 1.84 | I 3.12 | M 2.65 | D 1.69 | Q 2.12 | K 2.2 | H 2.77 | S 1.93 | W 1.54 | Y 2.4 | G 2.04 | F 2.32 | P 2.51 | N 3.02 | C 1.99 | E 1.7 | V 1.56 | R 2.23
V5: F 3.07 | L 2.2 | G 2.49 | E 2.5 | I 2.09 | R 2.45 | A 2.29 | H 2.09 | T 2.12 | K 1.82 | Y 2.03 | S 1.93 | N 2.06 | Q 1.65 | C 1.9 | D 2.13 | P 2.01 | M 3.01 | W 1.59
D11: T 2.76 | Y 2.42 | C 1.77 | F 2.46 | K 2.05 | G 2.19 | S 1.39 | P 1.67 | Q 2.5 | I 2.2 | V 2.53 | E 1.6 | A 2.79 | H 2.28 | N 1.67 | W 1.94 | R 1.47 | M 2.04 | L 1.89
N8: F 2.85 | S 2.33 | G 1.83 | M 3.09 | E 2.14 | D 1.79 | Q 1.9 | L 2.61 | A 2.69 | K 1.7 | C 2.94 | W 2.85 | T 2.68 | R 2.3 | I 2.35 | H 1.76 | Y 2.88 | P 1.82 | V 1.83
N13: M 1.98 | T 1.3 | F 2.09 | S 2.34 | R 1.98 | I 2.76 | D 2.29 | Q 2.11 | V 2.44 | E 2.5 | L 1.96 | A 2 | G 2.14 | C 1.89 | K 2.18 | W 2.88 | H 2.15 | Y 2.31
V2: N 4.51 | A 2.96 | D 4.91 | G 3.76 | I 2.07 | E 4.98 | L 3.09 | M 3.61 | W 2.5 | K 4.33 | T 2.91 | R 4.13 | Y 3.07 | S 4.24 | H 2.39 | Q 3.32 | C 2.34 | P 3.69 | F 2.81
A7: T 2.12 | F 3.08 | M 2.16 | V 3.18 | Q 2.15 | P 2.14 | S 2.13 | K 1.64 | G 2.2 | E 2.19 | N 1.97 | D 2.02 | H 2.09 | I 1.88 | L 1.98 | W 2.45 | R 1.97 | Y 2.64 | C 1.74
Y1: F 1.94 | I 2.7 | A 4.19 | G 4.12 | P 4.42 | C 2.52 | N 4.65 | S 4.28 | W 1.74 | H 4.05 | L 3.4 | D 4.52 | Q 4.06 | K 3.77 | R 3.55 | E 4.6 | T 4.31 | M 3.69 | V 3.15
D3: E 1.87 | H 2.07 | N 2.01 | K 2.13 | A 2 | P 1.2 | T 1.82 | I 4.3 | Y 2.34 | W 2.8 | V 2.48 | F 2.71 | G 2.85 | S 2.99 | R 2.28 | M 3.61 | Q 1.91 | L 2.51 | C 2.31
V4: W 2.33 | F 2.3 | G 3.05 | M 2.87 | E 2.07 | N 1.64 | K 2.31 | S 1.67 | I 1.83 | C 1.51 | R 2.52 | D 2.26 | A 1.98 | T 2.12 | Y 1.85 | Q 1.71 | L 2.66 | H 1.39 | P 1.87
P12: E 1.65 | F 2.02 | V 2.72 | D 1.65 | T 1.56 | A 2.27 | C 2.08 | G 2.31 | Q 2.43 | M 2.03 | R 1.46 | H 1.37 | K 2.16 | N 1.28 | S 1.66 | Y 2.72 | L 2.51 | W 2.04 | I 1.83
P10: S 1.38 | Q 1.73 | G 2.65 | V 1.82 | T 2.17 | A 1.84 | N 2.06 | R 2.13 | Y 1.69 | F 2.8 | K 2.27 | D 2.47 | L 2.7 | C 2.43 | M 2.62 | I 2.2 | W 3.14 | H 2.12 | E 2.13

Variants of: B2
Test: as above
Settings: c terminus: a fixed tail appended

Protein stability index of substitutions, site by site:
S24: E 2.21
L12: M 2.73 | P 1.95 | N 2.41
I11: Y 2.68 | H 1.24 | E 3.87 | V 3.46
V7: K 3.16
L19: C 2.7
F2: H 1.63 | K 2.56 | I 3.92
E9: C 1.88 | W 4.55
L14: S 2.8
R20: D 4.23
I3: M 3.13
E13: I 3.04 | T 2.24 | S 1.92 | R 3.68
F4: G 3.56 | I 1.48
Y21: N 1.61 | G 3.65 | T 3.04 | H 2.96
Y5: P 1.66 | E 2.14
V1: R 2.23
H17: M 3.93 | D 3
S23: C 1.99
Y6: P 1.54 | E 1.79
I16: L 2.92
H15: N 3.63
